Usually Kd stands for the concentration at which binding is half-saturated. Low readings indicate a tighter complex, high ones a looser complex.

The assay concerns the target T1, wildtype αEβ7 ectodomain (human, UniProt P38570 19-1123; P26010 20-723, N-linked glycan at N303 (N321 in the legend of Figure 4)).
T1 construct: signal peptide in the construct; integrin alpha-E (CD103) ectodomain, M1-H1123 (limits count on the precursor); integrin beta-7 ectodomain, M1-H723 (limits count on the precursor); Wild-type αE construct 'used for integrin:e-cadherin complex'; The αEβ7 of the BLI assay is not specified; also called integrin αEβ7; source: ExpiCHO cells, α and β co-transfected, secreted, purified (HisTrap, SEC)
In words: BLI; Octet Red, 25°C; Fc-tagged E-cadherin ectodomain loaded on Protein A biosensors; αEβ7 500nM to 16.125nM in activating buffer with 0.1% BSA and 0.02% Tween-20; 1:1 model, global fit of three replicates. To be noted: both partners purified. A general note: BLI is a label-free optical method that tracks binding on a fibre tip over time.

T1 sequence (P38570 19-1123, chain 1 of 2): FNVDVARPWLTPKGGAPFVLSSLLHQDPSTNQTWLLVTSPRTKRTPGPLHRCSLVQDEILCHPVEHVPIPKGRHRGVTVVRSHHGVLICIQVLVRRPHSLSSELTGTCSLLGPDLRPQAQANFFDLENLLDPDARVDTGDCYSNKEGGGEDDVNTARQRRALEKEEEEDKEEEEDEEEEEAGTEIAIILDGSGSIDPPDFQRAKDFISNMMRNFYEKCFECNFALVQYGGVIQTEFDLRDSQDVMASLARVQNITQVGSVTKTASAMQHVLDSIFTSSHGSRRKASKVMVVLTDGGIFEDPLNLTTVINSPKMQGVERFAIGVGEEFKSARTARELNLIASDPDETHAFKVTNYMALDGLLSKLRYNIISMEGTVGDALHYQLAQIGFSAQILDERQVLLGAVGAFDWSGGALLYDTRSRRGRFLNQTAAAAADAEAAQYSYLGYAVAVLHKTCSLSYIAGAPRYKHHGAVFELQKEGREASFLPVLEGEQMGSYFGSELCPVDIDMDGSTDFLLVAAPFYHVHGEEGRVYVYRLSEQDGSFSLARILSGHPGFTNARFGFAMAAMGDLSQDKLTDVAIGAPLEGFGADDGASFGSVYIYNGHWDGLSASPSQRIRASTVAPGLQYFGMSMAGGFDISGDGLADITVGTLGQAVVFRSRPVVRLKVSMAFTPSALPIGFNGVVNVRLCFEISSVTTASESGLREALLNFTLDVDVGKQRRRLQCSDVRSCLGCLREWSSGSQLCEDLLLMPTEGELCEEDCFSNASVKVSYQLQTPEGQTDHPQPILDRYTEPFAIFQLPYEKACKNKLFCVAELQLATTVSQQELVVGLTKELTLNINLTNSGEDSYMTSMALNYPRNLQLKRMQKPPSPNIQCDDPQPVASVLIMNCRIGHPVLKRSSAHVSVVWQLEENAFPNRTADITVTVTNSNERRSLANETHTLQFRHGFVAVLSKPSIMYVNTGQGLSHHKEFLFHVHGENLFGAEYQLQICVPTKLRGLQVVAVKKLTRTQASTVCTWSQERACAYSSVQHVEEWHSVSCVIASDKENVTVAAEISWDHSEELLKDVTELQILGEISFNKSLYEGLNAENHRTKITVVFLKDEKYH
T1 sequence (P26010 20-723, chain 2 of 2): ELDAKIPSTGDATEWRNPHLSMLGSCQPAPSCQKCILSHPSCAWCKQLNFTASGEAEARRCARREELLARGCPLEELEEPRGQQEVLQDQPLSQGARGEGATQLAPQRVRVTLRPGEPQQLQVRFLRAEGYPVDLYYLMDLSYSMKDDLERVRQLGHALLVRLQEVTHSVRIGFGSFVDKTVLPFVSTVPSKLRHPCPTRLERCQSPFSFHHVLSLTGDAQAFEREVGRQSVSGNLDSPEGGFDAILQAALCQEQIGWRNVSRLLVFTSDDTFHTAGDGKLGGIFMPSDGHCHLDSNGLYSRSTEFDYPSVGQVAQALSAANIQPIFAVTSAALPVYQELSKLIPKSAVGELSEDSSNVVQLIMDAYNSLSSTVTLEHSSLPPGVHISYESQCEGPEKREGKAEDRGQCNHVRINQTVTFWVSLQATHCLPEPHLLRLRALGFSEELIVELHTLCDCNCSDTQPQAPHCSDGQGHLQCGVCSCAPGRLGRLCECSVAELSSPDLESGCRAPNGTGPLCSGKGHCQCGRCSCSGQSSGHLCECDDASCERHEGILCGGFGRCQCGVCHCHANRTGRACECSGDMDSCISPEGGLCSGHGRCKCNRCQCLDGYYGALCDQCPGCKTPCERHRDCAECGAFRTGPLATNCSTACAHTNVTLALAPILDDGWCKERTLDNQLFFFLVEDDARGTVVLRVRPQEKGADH

B1: Fc-tagged E-cadherin ectodomain (Fc fusion, UniProt P12830 155-698, looked up)
chain: DWVIPPISCPENEKGPFPKNLVQIKSNKDKEGKVFYSITGQGADTPPVGVFIIERETGWLKVTEPLDRERIATYTLFSHAVSSNGNAVEDPMEILITVTDQNDNKPEFTQEVFKGSVMEGALPGTSVMEVTATDADDDVNTYNAAIAYTILSQDPELPDKNMFTINRNTGVISVVTTGLDRESFPTYTLVVQAADLQGEGLSTTATAVITVTDTNDNPPIFNPTTYKGQVPENEANVVITTLKVTDADAPNTPAWEAVYTILNDDGGQFVVTTNPVNNDGILKTAKGLDFEAKQQYILHVAVTNVVPFEVSLTTSTATVTVDVLDVNEAPIFVPPEKRVEVSEDFGVGQEITSYTAQEPDTFMEQKITYRIWRDTANWLEINPDTGAISTRAELDREDFEHVKNSTYTALIIATDNGSPVATGTGTLLLILSDVNDNAPIPEPRTIFFCERNPKPQVINIIDADLPPNTSPFTAELTHGASANWTIQYNDPTQESIILKPKMALEVGDYKINLKLMDNQNKDQVTTLEVSVCDCEGAAGVCRKA
notes: E-cadherin ectodomain, D155-A698 (limits count on the precursor); Held on Protein A biosensors by the Fc; source: ExpiCHO cells, secreted, purified (HiTrap Protein G, SEC); not shown: Fc (human), C-terminal, kept
B1 returned a dissociation constant (Kd) of 51 ± 7.9 nM.

These data come from publication doi:10.1101/2023.11.05.565221, “Evolutionary origin and structural ligand mimicry by the inserted domain of alpha-integrin proteins” (bioRxiv, 2023).
